Results from patent US20220169728A1 (AB THERAPEUTICS, published 2022).

T1: CD55 (UniProt P08174 35-353, limits assumed)
T1 construct: whole, on cells; also called CD55 on Rituximab resistant Raji cells (RRCL)
T1 sequence (looked up): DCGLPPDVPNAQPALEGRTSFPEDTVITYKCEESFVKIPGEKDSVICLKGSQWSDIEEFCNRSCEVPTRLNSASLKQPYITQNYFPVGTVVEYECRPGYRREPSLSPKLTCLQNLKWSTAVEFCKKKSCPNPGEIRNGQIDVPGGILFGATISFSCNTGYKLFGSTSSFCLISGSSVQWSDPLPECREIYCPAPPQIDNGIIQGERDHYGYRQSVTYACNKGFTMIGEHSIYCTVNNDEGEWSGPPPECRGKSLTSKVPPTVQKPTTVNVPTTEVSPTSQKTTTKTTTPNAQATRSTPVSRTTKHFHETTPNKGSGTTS

B1: anti-CD55 antibody with CD55VH (SEQ ID NO: 14) N52C and VL (SEQ ID NO: 15) (antibody, V domains shown)
VH: QVKLQESGGGLVQPGGSLKLSCAASGFTFSGYGMSWIRQTPDKRLEWVATICSGGSYTYYSDSVKGRFTISRDNVKNTLYLQMSSLKSEDTAMYYCARRNGTLYYYLMDYWGRGTLVTVSS
VL: QSVLTQPPSASGSPGQSVTISCTGTSSDVGGYNYVSWYQQHPGKAPKFMIYDVSKRPSGVSNRFSGSKSGNTASLTISGVQAEDEADYYCSSYTSASTVIFGGGTKLTVL
notes: also called Test 3
B2: anti-CD55 antibody with CD55VH (SEQ ID NO: 14) N52P and VL (SEQ ID NO: 15) (antibody, V domains shown)
VH: QVKLQESGGGLVQPGGSLKLSCAASGFTFSGYGMSWIRQTPDKRLEWVATIPSGGSYTYYSDSVKGRFTISRDNVKNTLYLQMSSLKSEDTAMYYCARRNGTLYYYLMDYWGRGTLVTVSS
VL: QSVLTQPPSASGSPGQSVTISCTGTSSDVGGYNYVSWYQQHPGKAPKFMIYDVSKRPSGVSNRFSGSKSGNTASLTISGVQAEDEADYYCSSYTSASTVIFGGGTKLTVL
notes: also called Test 11
B3: anti-CD55 antibody with CD55VH (SEQ ID NO: 14) N52G and VL (SEQ ID NO: 15) (antibody, V domains shown)
VH: QVKLQESGGGLVQPGGSLKLSCAASGFTFSGYGMSWIRQTPDKRLEWVATIGSGGSYTYYSDSVKGRFTISRDNVKNTLYLQMSSLKSEDTAMYYCARRNGTLYYYLMDYWGRGTLVTVSS
VL: QSVLTQPPSASGSPGQSVTISCTGTSSDVGGYNYVSWYQQHPGKAPKFMIYDVSKRPSGVSNRFSGSKSGNTASLTISGVQAEDEADYYCSSYTSASTVIFGGGTKLTVL
notes: also called Test 4
B4: anti-CD55 antibody with CD55VH (SEQ ID NO: 14) N52M and VL (SEQ ID NO: 15) (antibody, V domains shown)
VH: QVKLQESGGGLVQPGGSLKLSCAASGFTFSGYGMSWIRQTPDKRLEWVATIMSGGSYTYYSDSVKGRFTISRDNVKNTLYLQMSSLKSEDTAMYYCARRNGTLYYYLMDYWGRGTLVTVSS
VL: QSVLTQPPSASGSPGQSVTISCTGTSSDVGGYNYVSWYQQHPGKAPKFMIYDVSKRPSGVSNRFSGSKSGNTASLTISGVQAEDEADYYCSSYTSASTVIFGGGTKLTVL
notes: also called Test 8
B5: anti-CD55 antibody with CD55VH (SEQ ID NO: 14) N52E and VL (SEQ ID NO: 15) (antibody, V domains shown)
VH: QVKLQESGGGLVQPGGSLKLSCAASGFTFSGYGMSWIRQTPDKRLEWVATIESGGSYTYYSDSVKGRFTISRDNVKNTLYLQMSSLKSEDTAMYYCARRNGTLYYYLMDYWGRGTLVTVSS
VL: QSVLTQPPSASGSPGQSVTISCTGTSSDVGGYNYVSWYQQHPGKAPKFMIYDVSKRPSGVSNRFSGSKSGNTASLTISGVQAEDEADYYCSSYTSASTVIFGGGTKLTVL
notes: also called Test 6
B6: anti-CD55 antibody with CD55VH (SEQ ID NO: 14) N52L and VL (SEQ ID NO: 15) (antibody, V domains shown)
VH: QVKLQESGGGLVQPGGSLKLSCAASGFTFSGYGMSWIRQTPDKRLEWVATILSGGSYTYYSDSVKGRFTISRDNVKNTLYLQMSSLKSEDTAMYYCARRNGTLYYYLMDYWGRGTLVTVSS
VL: QSVLTQPPSASGSPGQSVTISCTGTSSDVGGYNYVSWYQQHPGKAPKFMIYDVSKRPSGVSNRFSGSKSGNTASLTISGVQAEDEADYYCSSYTSASTVIFGGGTKLTVL
notes: also called Test 10
B7: CD20/CD3 BsMab with common VL (SEQ ID NO: 3) Q88V (bispecific antibody, V domains shown)
VH 1: QVQLQQPGAELVKPGASVKMSCKASGYTFTSYNMHWVKQTPGRGLEWIGAIYPGNGDTSYNQKFKGKATLTADKSSSTAYMQLSSLRSEDSAVYYCARSTYYGGDWYFNVWGAGTTVTVSA
VH 2: EVQLQESGAELARPGASVKMSCKASGYTFTSYTMHWVKQRPGEGLEWIGYINPSSGYTKYNQKFKDKATLTADKSSSTAYMELSSLTSEDSAVYYCARWQDYDVYFDYWGEGTTLTVSS
VL: QIVLSQSPAILSASPGEKVTMTCRASSSVSYIHWFQQKPGSSPKPWIYATSNLASGVPVRFSGSGSGTSYSLTISRVEAEDAATYYCVQWTSNPPTFGGGTKLEIKR
B8: CD20/CD3 BsMab with common VL (SEQ ID NO: 3) Q88H (bispecific antibody, V domains shown)
VH 1: QVQLQQPGAELVKPGASVKMSCKASGYTFTSYNMHWVKQTPGRGLEWIGAIYPGNGDTSYNQKFKGKATLTADKSSSTAYMQLSSLRSEDSAVYYCARSTYYGGDWYFNVWGAGTTVTVSA
VH 2: EVQLQESGAELARPGASVKMSCKASGYTFTSYTMHWVKQRPGEGLEWIGYINPSSGYTKYNQKFKDKATLTADKSSSTAYMELSSLTSEDSAVYYCARWQDYDVYFDYWGEGTTLTVSS
VL: QIVLSQSPAILSASPGEKVTMTCRASSSVSYIHWFQQKPGSSPKPWIYATSNLASGVPVRFSGSGSGTSYSLTISRVEAEDAATYYCHQWTSNPPTFGGGTKLEIKR
B9: CD20/CD3 BsMab with common VL (SEQ ID NO: 3) N93C (bispecific antibody, V domains shown)
VH 1: QVQLQQPGAELVKPGASVKMSCKASGYTFTSYNMHWVKQTPGRGLEWIGAIYPGNGDTSYNQKFKGKATLTADKSSSTAYMQLSSLRSEDSAVYYCARSTYYGGDWYFNVWGAGTTVTVSA
VH 2: EVQLQESGAELARPGASVKMSCKASGYTFTSYTMHWVKQRPGEGLEWIGYINPSSGYTKYNQKFKDKATLTADKSSSTAYMELSSLTSEDSAVYYCARWQDYDVYFDYWGEGTTLTVSS
VL: QIVLSQSPAILSASPGEKVTMTCRASSSVSYIHWFQQKPGSSPKPWIYATSNLASGVPVRFSGSGSGTSYSLTISRVEAEDAATYYCQQWTSCPPTFGGGTKLEIKR
B10: CD20/CD3 BsMab with common VL (SEQ ID NO: 3) Q88P (bispecific antibody, V domains shown)
VH 1: QVQLQQPGAELVKPGASVKMSCKASGYTFTSYNMHWVKQTPGRGLEWIGAIYPGNGDTSYNQKFKGKATLTADKSSSTAYMQLSSLRSEDSAVYYCARSTYYGGDWYFNVWGAGTTVTVSA
VH 2: EVQLQESGAELARPGASVKMSCKASGYTFTSYTMHWVKQRPGEGLEWIGYINPSSGYTKYNQKFKDKATLTADKSSSTAYMELSSLTSEDSAVYYCARWQDYDVYFDYWGEGTTLTVSS
VL: QIVLSQSPAILSASPGEKVTMTCRASSSVSYIHWFQQKPGSSPKPWIYATSNLASGVPVRFSGSGSGTSYSLTISRVEAEDAATYYCPQWTSNPPTFGGGTKLEIKR
B11: CD20/CD3 BsMab with common VL (SEQ ID NO: 3) Q88Y (bispecific antibody, V domains shown)
VH 1: QVQLQQPGAELVKPGASVKMSCKASGYTFTSYNMHWVKQTPGRGLEWIGAIYPGNGDTSYNQKFKGKATLTADKSSSTAYMQLSSLRSEDSAVYYCARSTYYGGDWYFNVWGAGTTVTVSA
VH 2: EVQLQESGAELARPGASVKMSCKASGYTFTSYTMHWVKQRPGEGLEWIGYINPSSGYTKYNQKFKDKATLTADKSSSTAYMELSSLTSEDSAVYYCARWQDYDVYFDYWGEGTTLTVSS
VL: QIVLSQSPAILSASPGEKVTMTCRASSSVSYIHWFQQKPGSSPKPWIYATSNLASGVPVRFSGSGSGTSYSLTISRVEAEDAATYYCYQWTSNPPTFGGGTKLEIKR
B12: CD20/CD3 BsMab with common VL (SEQ ID NO: 3) Q88M (bispecific antibody, V domains shown)
VH 1: QVQLQQPGAELVKPGASVKMSCKASGYTFTSYNMHWVKQTPGRGLEWIGAIYPGNGDTSYNQKFKGKATLTADKSSSTAYMQLSSLRSEDSAVYYCARSTYYGGDWYFNVWGAGTTVTVSA
VH 2: EVQLQESGAELARPGASVKMSCKASGYTFTSYTMHWVKQRPGEGLEWIGYINPSSGYTKYNQKFKDKATLTADKSSSTAYMELSSLTSEDSAVYYCARWQDYDVYFDYWGEGTTLTVSS
VL: QIVLSQSPAILSASPGEKVTMTCRASSSVSYIHWFQQKPGSSPKPWIYATSNLASGVPVRFSGSGSGTSYSLTISRVEAEDAATYYCMQWTSNPPTFGGGTKLEIKR
B13: CD20/CD3 BsMab with common VL (SEQ ID NO: 3) Q88G (bispecific antibody, V domains shown)
VH 1: QVQLQQPGAELVKPGASVKMSCKASGYTFTSYNMHWVKQTPGRGLEWIGAIYPGNGDTSYNQKFKGKATLTADKSSSTAYMQLSSLRSEDSAVYYCARSTYYGGDWYFNVWGAGTTVTVSA
VH 2: EVQLQESGAELARPGASVKMSCKASGYTFTSYTMHWVKQRPGEGLEWIGYINPSSGYTKYNQKFKDKATLTADKSSSTAYMELSSLTSEDSAVYYCARWQDYDVYFDYWGEGTTLTVSS
VL: QIVLSQSPAILSASPGEKVTMTCRASSSVSYIHWFQQKPGSSPKPWIYATSNLASGVPVRFSGSGSGTSYSLTISRVEAEDAATYYCGQWTSNPPTFGGGTKLEIKR
B14: CD20/CD3 BsMab with common VL (SEQ ID NO: 3) Q88L (bispecific antibody, V domains shown)
VH 1: QVQLQQPGAELVKPGASVKMSCKASGYTFTSYNMHWVKQTPGRGLEWIGAIYPGNGDTSYNQKFKGKATLTADKSSSTAYMQLSSLRSEDSAVYYCARSTYYGGDWYFNVWGAGTTVTVSA
VH 2: EVQLQESGAELARPGASVKMSCKASGYTFTSYTMHWVKQRPGEGLEWIGYINPSSGYTKYNQKFKDKATLTADKSSSTAYMELSSLTSEDSAVYYCARWQDYDVYFDYWGEGTTLTVSS
VL: QIVLSQSPAILSASPGEKVTMTCRASSSVSYIHWFQQKPGSSPKPWIYATSNLASGVPVRFSGSGSGTSYSLTISRVEAEDAATYYCLQWTSNPPTFGGGTKLEIKR

What follows are binders tested against T1, CD55 (assay: binding at 5 µg/ml against the unmutated antibody (SEQ ID NO: 14 + 15); format not stated).

Row | Binder | Function remaining percentage (5 µg/ml) [%]
1 | B1 | 32
2 | B2 | 11
3 | B3 | 28
4 | B4 | 16
5 | B5 | 21
6 | B6 | 15

What follows are binders tested against CD3 (Homo sapiens (Human), UniProt P07766 23-207; P04234 22-171; P09693 23-182) (assay: cell-based or functional assay).
Sequence of CD3 (P07766 23-207 limits assumed, chain 1 of 3): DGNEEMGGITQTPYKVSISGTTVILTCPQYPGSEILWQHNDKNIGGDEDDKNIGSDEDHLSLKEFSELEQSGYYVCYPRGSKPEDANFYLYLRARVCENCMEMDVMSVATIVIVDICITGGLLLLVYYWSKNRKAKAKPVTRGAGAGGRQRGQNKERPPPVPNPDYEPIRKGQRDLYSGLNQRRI
Sequence of CD3 (P04234 22-171 limits assumed, chain 2 of 3): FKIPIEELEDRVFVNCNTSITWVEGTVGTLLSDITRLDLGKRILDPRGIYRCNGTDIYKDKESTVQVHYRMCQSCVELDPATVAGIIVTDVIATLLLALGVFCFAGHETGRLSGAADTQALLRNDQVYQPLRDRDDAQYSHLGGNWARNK
Sequence of CD3 (P09693 23-182 limits assumed, chain 3 of 3): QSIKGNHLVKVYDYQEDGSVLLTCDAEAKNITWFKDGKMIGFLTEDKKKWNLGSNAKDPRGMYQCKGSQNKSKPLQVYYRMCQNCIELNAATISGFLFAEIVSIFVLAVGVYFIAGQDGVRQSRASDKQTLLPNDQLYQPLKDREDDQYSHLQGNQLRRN

Row | Binder | Function % 0.025 ug/ml (T cell activation, CD69 on Jurkat cells with Raji cells, against the unmutated baseline) [%] | Function % 2 ug/ml (T cell activation, CD69 on Jurkat cells with Raji cells, against the unmutated baseline) [%]
7 | B7 | 14 | 75
8 | B8 | 12 | 36
9 | B9 | 16 | 77
10 | B10 | 7 | 16
11 | B11 | 8 | 21
12 | B12 | 27 | 95
13 | B13 | 8 | 39
14 | B14 | 8 | 55
